Assay results: the nanobody polyreactivity screen of Harvey et al. (2022)

Test: yeast display, Sf9 membrane polyspecificity reagent, FACS + sequencing; frameworks hold sequencing errors
Procedure, shortened: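 A synthetic nanobody library was expressed on Saccharomyces cerevisiae BJ5465 by galactose induction for 36–48 hours. The library was stained for 1 hour at 4 °C with 10% biotinylated, detergent-solubilized Sf9 membrane reagent and enriched with streptavidin microbeads before FACS. Low and high (top ~1%) gates were set on anti-HA fluorescence for expression and streptavidin fluorescence for reagent binding, and each polyreactivity label reflects the gate of origin.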

Sequence | polyreactivity (PSR sort gate)
QVQLVESGGGLVQAGGSLRLSCAASGRTLLPNALGWYRQAPGKERELVASIRDGGDTNYADSVKGRFTISRDNAKKTVYLQMNSLQPEDTGVYYCNADWWAYYSFGHEYWGLGTQVTVSS | low polyreactivity
QVQLVESGGGLVQAGGSLRLSCAASGRTLQIYVMGWYRQAPGKERELVASITGRGGSTYYADSVKGRFTISRDNAKNTVYLQMNSLKPEDTAVYYCARRYYRLDYWGQGTQVTVSS | high polyreactivity
QVQLVESGGGLVQAGGSLRLSCAASGRTLRKYAMGWYRQAPGKERELVAAITTSGGSTYYADSVKGRFTISRDNAKNTVYLQMNSLKPEDTAVYYCNAARYYAYIGDYWGQGTQVTVSS | high polyreactivity
QVQLVESGGGLVQAGGSLRLSCAASGRTLRLNAMGWYRQAPGKQREFVDAISRSGDSTYYADSVKGRFTISRDNAKNTVYLQMNSLKPEDTAVYYCNAKYYRYPCAYRYDYWGQGTQVTVSS | high polyreactivity
QVQLVESGGGLVQAGGSLRLSCAASGRTLRQYAMGRYRQAPGKERELVAAISRGGSTTYADSVKGRFTISRDNAKNTVYLQMNSLKPEDTAVYYCNAELNWYYYIHLDYWGQGTQVTVSS | low polyreactivity
QVQLVESGGGLVQAGGSLRLSCAASGRTLRSYTMGWYRQAPGKERELVAAINWNGGTTYYADSVKGRFTISRDNAKNTVYLQMNSLKAEDTAVYYCAAESSRWHTYWYSLSNLGRGYWGQGTQVTVSS | high polyreactivity
QVQLVESGGGLVQAGGSLRLSCAASGRTLRTYTMGWYRQAPGKERELVAAISSSDDSTYYADSVKGRFTISRDNAKNTVYLQMNSLKPEDTAVYYCAKDGLYPTEYGYWGQGTQVTVSS | high polyreactivity
QVQLVESGGGLVQAGGSLRLSCAASGRTLRYNAMGWDRQAPGKERELVAAISTRGTNTYYADSVKGRFTISRDNAKNTVYLQMNSLKPEDTAVYYCAAKKGGYPYSVYSGTRHNYWGQGTQVTVSS | high polyreactivity
QVQLVESGGGLVQAGGSLRLSCAASGRTLSRYTMGWYIQAPGKERELVAGITRSGGSTYYPDSEKGRFTISRDNAKNTVYLQMNSLKPEDTAVYYCAARWHFLTSSRFDYWGQGTQVTVSS | high polyreactivity
QVQLVESGGGLVQAGGSLRLSCAASGRTLSWYAMGWYRQAPGKEWEFVAAITSSGASTYYADSVKGRFTISRDNANNTVYLQMNSLKPEDTAVYYCNAAWRRVWFNYCGQGTQVTVSS | high polyreactivity
QVQLVESGGGLVQAGGSLRLSCAASGRTLTGYAMGWYRQAPGKERELVAAITWRDSTYYADSVKGRFTISRDNAKNSVYLQMNSLKPEDTAVYYCNADNATYFVYEFNYWGQGTQVTVSS | low polyreactivity
QVQLVESGGGLVQAGGSLRLSCAASGRTLTYNVMGWYRPAPGKERELVASISATGGSTYYADSVKGRFTISRDNAKNTVYLQMNSLKPEDTAVYSCAARGYRYHYATRYDYWGQATQVTVSS | high polyreactivity
QVQLVESGGGLVQAGGSLRLSCAASGRTLVHYAMGWYRQAPGKERELVAAISYSGGRTYYADSVKGRFTISRDNAKNTVYLQMNSLKPEDTAVYYCAAEIVYPAIGGYGYWGQGTQVTVSS | low polyreactivity
QVQLVESGGGLVQAGGSLRLSCAASGRTLVLNMGWYRPAPGKERELVATINSGGSTYYADSVKGRFTISRDNAKNTVYLQMNSLKPEDTAVYYCAVLSSDGKFDYWGQGTQVTVSS | low polyreactivity
QVQLVESGGGLVQAGGSLRLSCAASGRTLVYYAMGSYRQSPGKERELVAAISWSGSRTYYADSVKGRFTISRDNAKNTVYLQMNSLKPEDTAVYYCATLTFRTNGTMDYWGQGTQVTVSS | high polyreactivity
QVQLVESGGGLVQAGGSLRLSCAASGRTLWGNAMGWYRQAPGKERELVAAISRSGYTNYADSVKGRFTISRDNAKNTVYLLMNRLKPEDTAVYYCNARSTRSRTYQSYDYWGQGTQVTVSS | high polyreactivity
QVQLVESGGGLVQAGGSLRLSCAASGRTLWYYTMGWYRQAPGKERELVADITRGTSTNYADSVKGRFTISRDNAKNTVYLQMNSLKPEDTAVYHCNRAHGRSRYSRDYDSWGQGTQVTVSS | low polyreactivity
QVQLVESGGGLVQAGGSLRLSCAASGRTLYFNAMGWYRQAPGKERALVADISIGGSTYSADSVKGRFTISRDNAKNTVYLQMNSLKPEDSAVYYCAANAHYYVSYAWSVDVDYWGQGTQVTVSS | high polyreactivity
QVQLVESGGGLVQAGGSLRLSCAASGRTLYGYAMGWYRQAPGKERELVAAISKRGTRTYHADSVKGRFTISRDNAKNTVYLQMNSLKPEDTAVYFCGARYPPDEATMEYWGQGTQVTVSS | high polyreactivity
QVQLVESGGGLVQAGGSLRLSCAASGRTLYLNAMGWYRQAPGKERELVASISRGGGSTYYADSVKGRFTISRDNAKYTVYLQMNSLKPEDTAVYYCAATGAGDYDYWGQGTQVTVSS | low polyreactivity
QVQLVESGGGLVQAGGSLRLSCAASGRTLYNYAMGWYRQAPGKERELVAAISSSGSTNYADSVKVRFTISRDNAKNTVYLQMNSLKPEDTAVYYCAKGYPWRYSIMDYWGQGTQVTVSS | low polyreactivity
QVQLVESGGGLVQAGGSLRLSCAASGRTLYYYAMGWYRQAPGKERELVARISSRGGSTYYADSVKGRFTISRDNAKNTVYLQMNSLKPEDTAVYYCAADGPGTSEDDYWGQGTQVTVSS | high polyreactivity

Sequence | polyreactivity (PSR sort gate)
QVQLVESGGGLVQAGGSLRLSCAASGRTMGYNTMGWYRQAPGKERELVARISYGGSTYYAESVKGRFTISRDNAKNTVYLQMNSLIPEDTAVYYCAAEARSYRYPYNYWGQGTQVTVSS | high polyreactivity
QVQLVESGGGLVQAGGSLRLSCAASGRTSAWYAMGWYRQAPGKERDLVATISYTGGRTYYADSVKGRFTISRDNAKNTVYLQMNSLKPEDTAVYYCAKRYTSWFSSKFDYWGQGTQVTVSS | high polyreactivity
QVQLVESGGGLVQAGGSLRLSCAASGRTSEIYTMGWYRPAPGKERELVASINTNYADSVKGGFTNSRDNAKNTVYLQMNCLKPEDTAVYYCNADDTIEFNYWGQGTQVTVSW | low polyreactivity
QVQLVESGGGLVQAGGSLRLSCAASGRTSGGYAMGWYRQAPGKERELVATITQSGGRTYYADSVKGRFTISRDNAKNTVYLQMNSLKPEDTAVYYCAAQYGRTYYSRREYWGQGTQVTVSS | high polyreactivity
QVQLVESGGGLVQAGGSLRLSCAASGRTSGRYAMGWYRQAPGKERELVAGITSSGGSTYYADSVKGRFTISRDNAKNSVYLQMNSLKPEDTAVYYCAKVWGAKGKTYRMYSWGQGTQVTVSS | high polyreactivity
QVQLVESGGGLVQAGGSLRLSCAASGRTSIGNAMGWYRQAPGKERELVASISWSGGSTYYADSVKGRFTISRDNAKNTVYLQMNSLKPEDTAVYYCAKTAYFLVFNEHLHKKRYDSWGLGTQVTVSS | low polyreactivity
QVQLVESGGGLVQAGGSLRLSCAASGRTSVINAMGWYRQATGKERELVAAITKRGGSTYYADSVKGRFTISRDNAKNTVYLQMNSLKPEDTAVYYCAKYAISIQYDSWGQGTQVTVSS | high polyreactivity
QVQLVESGGGLVQAGGSLRLSCAASGRTSVIYAMGWYGPAPGKERELVASIRRGCSTSYADSVKGRFTISRDNAKNTVYLQMNSLKPEDTAVFYCAALLYGYYHVWRNYYWGQGTQVTVSS | high polyreactivity
QVQLVESGGGLVQAGGSLRLSCAASGRTSVLYAMGWSRQAPGKEREFVAAITWNSGSTYYADSVKGRFTISRDNAKNTVYLQMISLKPEDTAVYYCNADYYFTSYRSTYDYWGQGTHVTVSS | low polyreactivity
QVQLVESGGGLVQAGGSLRLSCAASGRTSVRYAMGWYRQAPGKERELVAAISWSGGSTYYADSVKGRFTISRDNAKNTDYLQMNSLKAEDTAVYYCNAQHARGYYYWGQGTQVTVSS | low polyreactivity
QVQLVESGGGLVQAGGSLRLSCAASGRTSWRYAMGWYRQAPGKERELVAAINRGGSTYYADSVMGRFTISRDNAKNTVYLQMNSLKPEDTAVYYFAVDTPLVYYHQQAYVAGEYWGQGTQVTVSS | low polyreactivity
QVQLVESGGGLVQAGGSLRLSCAASGRTSWYYAMGWYRQAPGKERELVAAISVRAGSTYYADSVKGRFTISRDNAKNTVYLQMNSLKPEDTAVYYCAREYSPYTSRRDYWGQGTQVTVSS | high polyreactivity
QVQLVESGGGLVQAGGSLRLSCAASGRTSYVYAMGWYRQAPGKERELVATISFRGGSTYYADSVKGRFTISRDNAKNTVYLQMNSLKPEDTAVYYCAATTPYYTPRRRNEYWGQGTQVTVSS | high polyreactivity
QVQLVESGGGLVQAGGSLRLSCAASGRTTYWYAMGWYRQAPGKERELLADISWSGGSTYYADSVKGRFTISRDNAKNTVYIQMNSLKPEDTAVYYCNAAEQKYSIYYAFDTGPYDYWGQGTQVTVSS | low polyreactivity
QVQLVESGGGLVQAGGSLRLSCAASGRTVGYYGMGWYRQAPGKERELVAAITGSGGSTYYADSVKGRFTISRDNAKNTVYLQMNSLKPEDTAVYYCAATYLSRWTLYDYWGQGTQVTVSS | high polyreactivity
QVQLVESGGGLVQAGGSLRLSCAASGRTVSGYSMGWYIQAPGKERELVARITSGYSTNYADSVKWRFTISRDNAKNTVYLQMNCMKPEDTAVYYCAADRVWAFWTYGYWGQGTQVTVSS | low polyreactivity
QVQLVESGGGLVQAGGSLRLSCAASGRTVWDSAMGWYRQAPGNERELVAAIASNTGSTYYADSVKGRFTISRDNAKNTVYLQLNSLKPEDTAVYYCNVEYYYDFNFNYDDYEFDYWGQGTHVTVSS | high polyreactivity
QVQLVESGGGLVQAGGSLRLSCAASGRTVYKNTMGWYRQAPGKERELVAAISIRGGSTYYADSVKGRFTISRDNAKNTVYLQMNSLKPEDTAVYYCNVVYQKAARIVDFDYWGQGTQVTVSS | high polyreactivity
QVQLVESGGGLVQAGGSLRLSCAASGRTVYVYYMGWYRQAPGKERELVAAISTNYADSVKGRCTISRDNAKNTVYFQMNSLIPEDTAVYYCAADDIHYVIHAYYSTGVDYWGQGTQVTVSS | low polyreactivity
QVQLVESGGGLVQAGGSLRLSCAASGRTYFTNAMGWYRQAPGKERELVAAITGSGGSTSYADSVKVRFTISRDNAKNTVYLQMNSLKPEDTAVYYCAAEWQELEYVYWGQGTQVTVSS | low polyreactivity
QVQLVESGGGLVQAGGSLRLSCAASGRTYGIYAMGWYRQAPGKEREFVAAISWSSGGSTYYADSVKGRFTISRDNAKNTVYFQMISLKPEDTAVYYCNVDTIYNLESDYWGQGTQVTVSS | low polyreactivity
